Measurements as given in publication PMC11237401.

Experiments:
MurG = MurG (UniProt Q2FYL5); test: BACTH (bacterial adenylate cyclase-based two-hybrid); conditions: T18 fusion: Gp11 or mutant; T25 fusion: MurG; parent: est. 5300; read off a plot
DivIC = test: as above; conditions: T18 fusion: Gp11 or mutant; T25 fusion: DivIC; parent: est. 5500; read off a plot

Chain of UniProt Q2FYL5 (Q2FYL5 whole entry, the tested form may be a part): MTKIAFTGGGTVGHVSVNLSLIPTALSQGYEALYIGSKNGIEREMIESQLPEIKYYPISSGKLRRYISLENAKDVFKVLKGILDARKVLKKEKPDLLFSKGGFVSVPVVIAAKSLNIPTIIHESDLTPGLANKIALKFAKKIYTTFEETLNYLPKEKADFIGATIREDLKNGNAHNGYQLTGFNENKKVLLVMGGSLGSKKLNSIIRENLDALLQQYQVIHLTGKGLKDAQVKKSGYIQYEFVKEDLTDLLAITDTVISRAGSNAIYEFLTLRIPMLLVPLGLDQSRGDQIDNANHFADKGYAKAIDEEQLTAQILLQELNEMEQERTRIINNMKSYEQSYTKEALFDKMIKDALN

Substance | response (MurG) | response (DivIC)
Gp11 A38E | 150 Miller Units | 1900 Miller Units
Gp11 G36R | 100 Miller Units | 100 Miller Units
Gp11 S33L | 1600 Miller Units | 3200 Miller Units
